Where a chain is given by its changes, count along the chain named.
B1: Clone C variant 1 VNAR-hFc (Fc fusion, not shown: a dimerising Fc or GST)
chain: ARVDQTPQTITKETGESLTINCVLRDSNCALSSTYWYRKKSGSTNEENISKGGRYVETVNSGSKSFSLRINDLTVEDSGTYRCNVAQRPSYNNYFWCDVYGDGTAVTVN
B2: Clone C variant 2 VNAR-hFc (Fc fusion, not shown: a dimerising Fc or GST)
chain: B1 chain with A86L
B3: Clone C variant 3 VNAR-hFc (Fc fusion, not shown: a dimerising Fc or GST)
chain: B1 chain with A86V, R88H
B4: Clone C variant 4 VNAR-hFc (Fc fusion, not shown: a dimerising Fc or GST)
chain: B1 chain with A86V
B5: Clone C variant 5 VNAR-hFc (Fc fusion, not shown: a dimerising Fc or GST)
chain: B1 chain with A86V, R88S
B6: Clone C variant 6 VNAR-hFc (Fc fusion, not shown: a dimerising Fc or GST)
chain: B1 chain with A86V, R88W, Y91I, N92Q, N93S, Y94P
B7: Clone C variant 7 VNAR-hFc (Fc fusion, not shown: a dimerising Fc or GST)
chain: B1 chain with A86V, R88W, Y91L, N92S, N93S, Y94P
B8: Clone C variant 8 VNAR-hFc (Fc fusion, not shown: a dimerising Fc or GST)
chain: B1 chain with A86V, R88W
B9: Clone C variant 9 VNAR-hFc (Fc fusion, not shown: a dimerising Fc or GST)
chain: B1 chain with A86V, R88W, S90T, Y91L, N92S, N93S, Y94P
B10: Clone C variant 10 VNAR-hFc (Fc fusion, not shown: a dimerising Fc or GST)
chain: B1 chain with A86V, R88Y, S90F, Y91L, N92E
B11: Clone C variant 11 VNAR-hFc (Fc fusion, not shown: a dimerising Fc or GST)
chain: B1 chain with A86V, R88Y, S90H
B12: Clone C variant 21 VNAR-hFc (Fc fusion, not shown: a dimerising Fc or GST)
chain: B1 chain with A86V, R88Y, Y91I, N92F
B13: Clone C variant 22 VNAR-hFc (Fc fusion, not shown: a dimerising Fc or GST)
chain: B1 chain with A86V, R88Y, Y91N
B14: Clone C variant 23 VNAR-hFc (Fc fusion, not shown: a dimerising Fc or GST)
chain: B1 chain with A86V, R88Y, Y91Q, N92Q
B15: Clone C variant 24 VNAR-hFc (Fc fusion, not shown: a dimerising Fc or GST)
chain: B1 chain with A86V, R88Y, Y91W, N92D
B16: Clone C variant 25 VNAR-hFc (Fc fusion, not shown: a dimerising Fc or GST)
chain: B1 chain with A86V, R88Y, N92D, Y94P

Legend:
[1] = molecular target: T1, recombinant human TfR-1, His-tagged (Sino Biological 11020-H07H) (human, UniProt P02786 89-760); test: SPR, His-captured TfR1
T1 construct: bought; His-tagged; also called hTfR1; hTfR-1
T1 sequence (P02786 89-760 limits assumed): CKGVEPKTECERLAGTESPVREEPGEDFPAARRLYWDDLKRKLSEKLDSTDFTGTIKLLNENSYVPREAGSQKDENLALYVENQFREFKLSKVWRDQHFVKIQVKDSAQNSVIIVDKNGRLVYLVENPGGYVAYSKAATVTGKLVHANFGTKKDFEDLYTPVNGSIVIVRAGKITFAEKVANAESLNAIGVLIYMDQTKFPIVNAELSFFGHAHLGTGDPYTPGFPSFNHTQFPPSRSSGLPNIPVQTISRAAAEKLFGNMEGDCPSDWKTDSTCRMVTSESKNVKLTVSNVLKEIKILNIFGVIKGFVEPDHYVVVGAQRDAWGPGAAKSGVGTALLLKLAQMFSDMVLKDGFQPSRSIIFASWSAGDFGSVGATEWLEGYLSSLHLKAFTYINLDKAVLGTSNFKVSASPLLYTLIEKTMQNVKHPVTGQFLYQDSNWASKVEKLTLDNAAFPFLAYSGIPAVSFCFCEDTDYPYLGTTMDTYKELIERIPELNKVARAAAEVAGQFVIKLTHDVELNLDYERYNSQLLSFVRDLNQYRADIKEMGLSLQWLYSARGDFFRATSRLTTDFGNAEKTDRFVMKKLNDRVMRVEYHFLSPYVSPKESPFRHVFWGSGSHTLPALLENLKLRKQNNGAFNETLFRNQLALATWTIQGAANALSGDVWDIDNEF
Description: (§1) Detailed binding kinetic analyses were performed to gain a better understanding of the relationship between affinity and brain penetration of the Clone C variants. Biacore surface plasmon resonance (SPR) analysis using immobilised mouse and human TfR-1 was performed for selected clones (Table 2).
(§2) Binding kinetics of VNAR-Fcs was determined by surface plasmon resonance (Biacore T200, GE Healthcare). CMS chips were coated with anti-His antibodies (His Capture Kit, GE Healthcare) as recommended by the manufacturer and human or mouse his-tagged TfR1 (SinoBiological) at 10 ug/mL in HBS-EP+ (GE Healthcare) was captured at flow rate 10 ul/min (contact time 120 s). […] A flow cell without TfR1 captured served as a reference. Sensorgrams were fitted and kinetic constants were determined using Biacore T200 Evaluation software. Chips were regenerated in 10 mM Glycine-HCl, pH 1.5 (contact time: 120 s at flow rate 30 ul/min).

[2] = molecular target: T2, recombinant mouse TfR-1, His-tagged (Sino Biological 50741-M07H) (mouse, UniProt Q62351 89-763); test: SPR, His-captured TfR1
T2 construct: bought; His-tagged; also called mTfR1; mTfR-1
T2 sequence (Q62351 89-763 limits assumed, stated change not applied): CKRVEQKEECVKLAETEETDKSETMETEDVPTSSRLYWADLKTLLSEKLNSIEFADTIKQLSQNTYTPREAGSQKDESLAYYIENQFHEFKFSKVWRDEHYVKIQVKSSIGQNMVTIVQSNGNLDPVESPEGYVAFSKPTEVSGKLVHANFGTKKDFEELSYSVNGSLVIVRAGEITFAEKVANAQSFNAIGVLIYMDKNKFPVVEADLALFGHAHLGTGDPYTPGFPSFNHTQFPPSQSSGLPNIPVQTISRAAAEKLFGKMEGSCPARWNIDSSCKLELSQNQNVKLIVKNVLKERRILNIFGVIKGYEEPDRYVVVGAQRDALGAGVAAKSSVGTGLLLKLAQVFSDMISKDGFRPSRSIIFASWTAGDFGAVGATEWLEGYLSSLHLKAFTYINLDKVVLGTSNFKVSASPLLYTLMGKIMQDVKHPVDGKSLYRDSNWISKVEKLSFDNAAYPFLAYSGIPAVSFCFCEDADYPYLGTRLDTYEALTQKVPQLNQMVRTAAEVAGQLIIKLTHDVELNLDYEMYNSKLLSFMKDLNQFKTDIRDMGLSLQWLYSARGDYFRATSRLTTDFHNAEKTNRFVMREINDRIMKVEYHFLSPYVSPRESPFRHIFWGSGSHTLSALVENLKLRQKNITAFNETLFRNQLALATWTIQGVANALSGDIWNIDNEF
Description: as §1, §2

Binder | Kd [1] | koff [1] | kon [1] | Kd [2] | koff [2] | kon [2]
B1 | 2.79 nM | 0.000322 s⁻¹ | 115000 M⁻¹ s⁻¹ | 1.45 nM | 0.000154 s⁻¹ | 106000 M⁻¹ s⁻¹
B2 | 49.4 nM | 0.000677 s⁻¹ | 13700 M⁻¹ s⁻¹ | 9.65 nM | 0.000144 s⁻¹ | 14900 M⁻¹ s⁻¹
B3 | 0.311 nM | 0.000119 s⁻¹ | 381000 M⁻¹ s⁻¹ | 0.72 nM | 0.000256 s⁻¹ | 355000 M⁻¹ s⁻¹
B4 | 9.21 nM | 0.000325 s⁻¹ | 35200 M⁻¹ s⁻¹ | 2.34 nM | 8.76e-05 s⁻¹ | 37400 M⁻¹ s⁻¹
B5 | 0.733 nM | 0.000302 s⁻¹ | 411000 M⁻¹ s⁻¹ | 0.486 nM | 0.000135 s⁻¹ | 278000 M⁻¹ s⁻¹
B6 | 19.3 nM | 0.000955 s⁻¹ | 49500 M⁻¹ s⁻¹ | – | – | –
B7 | 0.636 nM | 7.02e-05 s⁻¹ | 110000 M⁻¹ s⁻¹ | 0.286 nM | 3.39e-05 s⁻¹ | 119000 M⁻¹ s⁻¹
B8 | 4.5 nM | 0.000519 s⁻¹ | 115000 M⁻¹ s⁻¹ | 6.81 nM | 0.000432 s⁻¹ | 63500 M⁻¹ s⁻¹
B9 | 26.5 nM | 0.000754 s⁻¹ | 28500 M⁻¹ s⁻¹ | 2.43 nM | 9.32e-05 s⁻¹ | 38300 M⁻¹ s⁻¹
B10 | 2.79 nM | 0.000389 s⁻¹ | 140000 M⁻¹ s⁻¹ | – | – | –
B11 | 0.472 nM | 9.01e-05 s⁻¹ | 191000 M⁻¹ s⁻¹ | 0.291 nM | 5.17e-05 s⁻¹ | 177000 M⁻¹ s⁻¹
B12 | 4.58 nM | 0.000437 s⁻¹ | 95500 M⁻¹ s⁻¹ | – | – | –
B13 | 8.44 nM | 0.000627 s⁻¹ | 74200 M⁻¹ s⁻¹ | – | – | –
B14 | 1.36 nM | 0.000432 s⁻¹ | 317000 M⁻¹ s⁻¹ | – | – | –
B15 | 2.19 nM | 0.000194 s⁻¹ | 88800 M⁻¹ s⁻¹ | – | – | –
B16 | 17.1 nM | 0.000569 s⁻¹ | 33300 M⁻¹ s⁻¹ | – | – | –
